For this assay, the target named is Biotinylated human ACE2 ectodomain (ACROBiosystems AC2-H82E6), native dimeric form (human) (UniProt Q9BYF1). As to the kind of experiment: FACS. Background: Flow cytometry measures light scatter and fluorescence of single cells or particles in a stream.
Chain of Biotinylated human ACE2 ectodomain (ACROBiosystems AC2-H82E6), native dimeric form (human) (Q9BYF1 18-740): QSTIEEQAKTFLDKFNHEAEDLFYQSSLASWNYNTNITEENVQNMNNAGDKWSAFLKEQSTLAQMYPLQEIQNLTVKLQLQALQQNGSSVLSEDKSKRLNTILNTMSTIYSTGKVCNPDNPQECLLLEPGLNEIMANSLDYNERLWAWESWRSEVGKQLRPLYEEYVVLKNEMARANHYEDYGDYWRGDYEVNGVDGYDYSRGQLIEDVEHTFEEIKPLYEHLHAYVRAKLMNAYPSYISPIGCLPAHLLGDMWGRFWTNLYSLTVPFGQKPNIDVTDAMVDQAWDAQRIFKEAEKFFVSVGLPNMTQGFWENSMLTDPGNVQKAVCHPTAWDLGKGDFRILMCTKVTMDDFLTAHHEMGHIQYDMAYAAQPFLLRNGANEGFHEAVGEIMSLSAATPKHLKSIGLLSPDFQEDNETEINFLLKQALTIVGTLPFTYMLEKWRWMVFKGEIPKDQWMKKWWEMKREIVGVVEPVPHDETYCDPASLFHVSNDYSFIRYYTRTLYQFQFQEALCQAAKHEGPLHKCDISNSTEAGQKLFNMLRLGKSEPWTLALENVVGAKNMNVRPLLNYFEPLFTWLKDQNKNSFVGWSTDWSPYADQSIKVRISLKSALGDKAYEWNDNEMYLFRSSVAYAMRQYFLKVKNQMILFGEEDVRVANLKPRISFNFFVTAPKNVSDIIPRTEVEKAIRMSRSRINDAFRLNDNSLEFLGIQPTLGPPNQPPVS
With WIV1 RBD, yeast-displayed, the Kd (as a rule, the free concentration of one partner at which half of the binding sites on the other are occupied at equilibrium, for simple one-to-one binding) worked out at 0.017 nM. As for ZC45 RBD, yeast-displayed, the figure is above 1000 nM; as for ZXC21 RBD, yeast-displayed, above 1000 nM.

Source of the values: article PMC7418704.
